Measured values published in US20160264650A1 (Regeneron, published 2016).
Changes are numbered by the printed parent chain. Read-outs that look alike come from different tables or passages of the source.

Key:
[1] = target: T1, Clostridium difficile toxin B, soluble full-length (TechLab) (Clostridium difficile, UniProt P18177 2-2366); assay: SPR Biacore T200, 37C, mAb capture
T1 construct: also called tcdB

[2] = target: T2, C-term receptor Binding Domain (CBD) of toxin B (Clostridium difficile, UniProt P18177 1851-2366); assay: SEC (Superose 6) of CBD and mAb mixture
T2 construct: also called CBD-B

[3] = target: T3, CBD-toxin A-Fc (Clostridium difficile, UniProt P16154 1848-2710); assay: SPR Biacore, CBD-A-Fc captured, 500 nM mAb flowed
T3 construct: also called CBD-A; C-term Toxin A

[4] = target: T3, CBD-toxin A-Fc; assay: SPR Biacore, mAb captured, 100 nM CBD-A-Fc flowed
[5] = target: T4, Clostridium difficile toxin A, soluble full-length (TechLab) (Clostridium difficile, UniProt P16154 1-2710); assay: SPR Biacore T200, 37C, mAb capture
T4 construct: also called tcdA

[6] = target: T4, Clostridium difficile toxin A, soluble …; assay: cell-based or functional assay
[7] = target: T5, CBD-toxin B-Fc (Clostridium difficile, UniProt P18177 1851-2366); assay: SPR Biacore, CBD-B-Fc captured, 500 nM mAb flowed
T5 construct: also called CBD-B; C-term Toxin B

[8] = target: T1, Clostridium difficile toxin B, soluble …; assay: cell-based or functional assay
[9] = target: T3, CBD-toxin A-Fc; assay: SPR Biacore, mAb capture and CBD-Fc capture formats
[10] = target: T4, Clostridium difficile toxin A, soluble …; assay: SPR Biacore T200, 37C, mAb capture; remark: listed apart in the source

B1: H1H3354P (antibody, V domains shown)
VH: QVQLQQSGPGLVKPSQTLSLTCAISGDSVSSNSAAWNWIRQSPSRGLEWLGRTYYRSKWYHDYAFSVKSRILINPDTSKNLFSLQVNSVTPEDTAVYYCARDRRSYFDYWGQGTLVTVSS
VL: EIVLTQSPATLSLSPGERATLSCRASRSVSSSLAWYQQKPGQAPRLLIYDASNRATGIPARFSGGGSGTDFTLTISSLEPEDFAVYYCQQRNNWPPTFGQGTKLEIKR
[1]
  binding result: no binding (tested: toxin at 5 to 10 nM)
[2]
  binding result: no binding (tested: CBD at ~500 nM, CBD:Mab 1:5 and 1:20)
[3]
  binding (RU): -2 RU
[4]
  binding (RU): -19 RU

B2: H1H3324P (antibody, V domains shown)
VH: EVQLVESGGGLVQPGGSLRLSCAASGFTFSSYDMHWVRQVIGKGLEWVSAIGTVGDTYYAGSVKGRFTISRENAKNSLYLQMNSLRAGDTAVYYCARDRGGANIYSFYYGMDVWGQGTTVTVSS
VL: DIQMTQSPSSLSVSVGDRVTITCRASQDISNYLAWYQQKPGKVPKLLIYAASTLQSGVPSRFSGSGSGTDFTLTISSLQPEDVATYFCQKYNSAPFTFGPGTKVDIKR
[5]
  Kd: 0.0139 nM
  T½: 54.9 h
  koff: 3.5e-06 s⁻¹
  kon: 251000 M⁻¹ s⁻¹
[6]
  IC50, Vero cell viability (neutralization), Trial 4, 32 pM Toxin A: 33 pM
[3]
  binding (RU): 224 RU
[4]
  binding (RU): 269 RU
[7]
  binding (RU): -8 RU

B3: H1H3328P (antibody, V domains shown)
VH: B2 VH with R19T, G26R, S31N, V40A, I41T, E72D, N73D, N103G, I104T
VL: B2 VL with V13A, I75V, F87Y, N92T
[5]
  Kd: 0.0957 nM
  T½: 5.27 h
  koff: 3.66e-05 s⁻¹
  kon: 382000 M⁻¹ s⁻¹
[6]
  IC50, Vero cell viability (neutralization), Trial 3, 32 pM Toxin A: 112 pM
[3]
  binding (RU): 227 RU
[4]
  binding (RU): 354 RU
[7]
  binding (RU): -6 RU

B4: H1H3394P (antibody, V domains shown)
VH: QVQLVQSGAEVQKPGASVKVSCKASGYTFTDYYIHWVRQAPGQGLEWMGWINPKTGGTNYAPKFQGRVTMTRDSSIITAYMDLTRLTSDDTAVFYCARRGYNSRWSVFDYWGQGTLVTVSS
VL: EIVLTQSPGTLSLSPGERATLSCRASQSVYSNYLAWYQQKRGLAPRLLIYGASSRATGIPDRFSGSGSGTDFTLTISRLEPEDFAVYYCQQHGGSPVTFGGGTKVEIKR
[1]
  Kd: 0.333 nM
  T½: 1.2 h
  koff: 0.000162 s⁻¹
  kon: 486000 M⁻¹ s⁻¹

B5: H1H3355P (antibody, V domains shown)
VH: EVQLVESGGGLVQPGRSLRLSCTASGFVFEDYAMHWVRQAPGKGLEWVSGISWNSGRIGYTDSVKGRFTVSRDNAKNSLYLQMNSLTTEDTALYYCAKDKSPSKWNLLGMDVWGQGTTVTVSS
VL: AIQMTQSPSSLSASVGDRVTITCRASQDIRNDLGWFQQKPGRAPNLLIFGASSLQSGVPSRFSGSGSGTDFTLTISGLQPEDFSTYYCLQDYTYPFTFGPGTKVDIKR
[1]
  binding result: no binding (tested: toxin at 5 to 10 nM)

B6: Control I (anti-toxin A antibody with the variable domains of the "3D8" antibody of U.S. Pat. No. 7,625,559 and US2005/0287150) (antibody, human IgG1, kappa, V domains shown)
VH: QVQLVESGGGVVQPGRSLRLSCAASGFSFSNYGMHWVRQAPGKGLEWVALIWYDGSNEDYTDSVKGRFTISRDNSKNTLYLQMNSLRAEDTAVYYCARWGMVRGVIDVFDIWGQGTVVTVSS
VL: DIQMTQSPSSVSASVGDRVTITCRASQGISSWLAWYQHKPGKAPKLLIYAASSLQSGVPSRFSGSGSGTDFTLTISSLQPEDFATYYCQQANSFPWTFGQGTKVEIKR
notes: also called control 1; Control Antibody I
[5]
  Kd: 0.0859 nM
  T½: 0.967 h
  koff: 3.24e-05 s⁻¹
  kon: 377000 M⁻¹ s⁻¹
[6]
  IC50, Vero cell viability (neutralization), Trial 5, 25 pM Toxin A: 199 pM

B7: H1H3401P (antibody, V domains shown)
VH: QVQLVESGGGVVQPGRSLRLSCEASGFTFSSYGMHWVRQAPGNGLEWIAVISSDGNNKYYIESVKGRFTMSRDNSKNTLYLQLNSLRTEDTAVYYCATYNWNDDGDGVFDYWGQGTLVTVSS
VL: B6 VL with S31N, H38Q, A50G, A51T, A91V, N92K, W96Y, V104L
[1]
  Kd: 0.574 nM
  T½: 0.8 h
  koff: 0.000241 s⁻¹
  kon: 420000 M⁻¹ s⁻¹

B8: H1H3411P (antibody, V domains shown)
VH: EVQLVESGGGLVQPGGSLRLSCAASGFTFSRYGMNWVRQAPGKGLEWVSAISGSGGSTYHADSVKGRFTISRDNSKNTLYLQMNSLRAADTAIYFCASYNWNDGVDVWGQGTTVTVS
VL: B6 VL with V15I, S31N, H38Q, A50G, P59S, S76I, W96Y, V104L
[8]
  IC50, Vero cell viability (neutralization), Trial 2, 0.1 pM Toxin B; antibody only partially protects (40-50%) at highest concentration: 8 pM
[1]
  Kd: 0.677 nM
  T½: 1.22 h
  koff: 0.000159 s⁻¹
  kon: 235000 M⁻¹ s⁻¹

B9: H1H3335P (antibody, V domains shown)
VH: EVQLVESGGGLVRPGGSLRLSCAASGFTFRIYAMSWVRQAPGKGLEWVSGISGSGDNTYYTDSVKGRFIISRDNSKSTLYLQMNSLRAEDTAVYYCARGWELLNYWGQGTLVTVSS
VL: DIQMTQSPSSLSAFVGDRVTITCRASQDISNHLAWFQQKPGKVPKSLIYAASSLQSGVPSKFSGSGSGTDFTLTISSLQPEDFATYYCQQYGLYPPTFGPGTKVDIKR
[8]
  IC50, Vero cell viability (neutralization), Trial 1, 0.1 pM Toxin B: 730 pM
  IC50, Vero cell viability (neutralization), Trial 2, 0.1 pM Toxin B: 380 pM
  IC50, Vero cell viability (neutralization), Trial 3, 0.03 pM Toxin B: 120 pM
[1]
  Kd: 2.34 nM
  T½: 0.467 h
  koff: 0.000414 s⁻¹
  kon: 177000 M⁻¹ s⁻¹
[2]
  binding result: no binding (tested: CBD at ~500 nM, CBD:Mab 1:5 and 1:20)
[3]
  binding (RU): 5 RU
[4]
  binding (RU): 13 RU
[9]
  binding result: no binding
[7]
  binding (RU): -6 RU

B10: H1H3337P (antibody, V domains shown)
VH: B9 VH with R13Q, R30S, D56G, N57R, T61A, I69T, S77N, A88V, Y105F
VL: B9 VL with F14S, D28G, H32N, V43A, Q55K, S76N, Q89H, G92N, L93S
[8]
  IC50, Vero cell viability (neutralization), Trial 1, 0.1 pM Toxin B: 1730 pM
  IC50, Vero cell viability (neutralization), Trial 2, 0.1 pM Toxin B: 980 pM
  IC50, Vero cell viability (neutralization), Trial 3, 0.03 pM Toxin B: 320 pM
[1]
  Kd: 3.93 nM
  T½: 0.2 h
  koff: 0.000945 s⁻¹
  kon: 241000 M⁻¹ s⁻¹
[2]
  binding result: no binding (tested: CBD at ~500 nM, CBD:Mab 1:5 and 1:20)
[3]
  binding (RU): 8 RU
[4]
  binding (RU): -17 RU

B11: H1M3117N (antibody, V domains shown)
VH: EVQLLESGGGLAQPGGSLRLSCAASGFNFGTHDMSWVRQAPGKGLEWVSGLTSTGGSASSADSVKGRFTISRDNSKNILYLQMNSLRAEDTAVYYCAKTFNWNSYFDYWGQGTLVTVSS
VL: EIVLTQSPGTLSLSPGERATLSCRASQSISTYYLAWYQQKPDQPPRLLIYGTSSRATGIPDRFSGSGSGTDFTLTISRLDPEDFAVYYCQQYGNSLYTFGQGTKLEIK
[6]
  IC50, Vero cell viability (neutralization), Trial 1, 32 pM Toxin A: 29 pM
  IC50, Vero cell viability (neutralization), Trial 2, 32 pM Toxin A: 11 pM
[3]
  binding (RU): 350 RU
[4]
  binding (RU): -3 RU

B12: H1H3117N (antibody, V domains shown)
VH: B11 VH
VL: B11 VL
[5]
  Kd: 0.0793 nM
  T½: 5.53 h
  koff: 3.84e-05 s⁻¹
  kon: 438000 M⁻¹ s⁻¹

B13: H2aM3067N (antibody, V domains shown)
VH: QIQLVESGGGVVQPGRSLRLSCVASGFTLSGHGMHWVRQAPGKGLEWVAFISFDGGHQDYTDAAEGRFTISRDNSKNTLYLEMVSLRPADTAIYYCVKGSDSSRGFGYWGRGILVTVSS
VL: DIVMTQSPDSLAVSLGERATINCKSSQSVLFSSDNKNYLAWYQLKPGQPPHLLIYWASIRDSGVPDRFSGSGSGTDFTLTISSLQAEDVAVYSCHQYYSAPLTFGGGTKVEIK
notes: also called H2M3067N; H1M3067N
[6]
  IC50, Vero cell viability (neutralization), Trial 1, 32 pM Toxin A: 64 pM
  IC50, Vero cell viability (neutralization), Trial 2, 32 pM Toxin A: 44 pM
[3]
  binding (RU): 237 RU
[4]
  binding (RU): -2 RU

B14: H1H3067N (antibody, V domains shown)
VH: B13 VH
VL: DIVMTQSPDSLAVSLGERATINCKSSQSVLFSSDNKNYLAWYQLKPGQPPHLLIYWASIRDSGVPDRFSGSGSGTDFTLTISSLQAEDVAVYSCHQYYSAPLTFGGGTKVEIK
[10]
  Kd: 0.24 nM
  T½: 5.58 h
  koff: 3.45e-05 s⁻¹
  kon: 144000 M⁻¹ s⁻¹

B15: H1M3134N (antibody, V domains shown)
VH: QVQLVESGGDVVQPGRSLRLSCAASGFTFSGHGMHWVRQAPGKGLEWVALILYDGSSEDYTDSVKGRFTVSRDNSKNTLYLQMNSLRAEDTAVYYCARGSILNRPFDYWGQGTLVTVSS
VL: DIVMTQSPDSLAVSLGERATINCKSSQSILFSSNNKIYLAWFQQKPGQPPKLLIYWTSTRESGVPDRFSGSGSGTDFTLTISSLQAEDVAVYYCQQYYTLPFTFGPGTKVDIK
notes: also called HIM3134N
[6]
  IC50, Vero cell viability (neutralization), Trial 4, 32 pM Toxin A: 38 pM
[3]
  binding (RU): 195 RU
[4]
  binding (RU): -1 RU

B16: H1H3134N (antibody, V domains shown)
VH: B15 VH
VL: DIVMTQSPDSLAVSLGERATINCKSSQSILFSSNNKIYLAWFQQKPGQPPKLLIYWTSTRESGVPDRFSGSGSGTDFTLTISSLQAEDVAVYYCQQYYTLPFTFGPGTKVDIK
[10]
  Kd: 0.0278 nM
  T½: 68.3 h
  koff: 2.82e-06 s⁻¹
  kon: 102000 M⁻¹ s⁻¹

B17: H1H3350P (antibody, V domains shown)
VH: QVQLVESGGGLVKPGGSLTLSCVASGFTFTDYYISWIRQAPGKGLEWISYIGTGGAAKYYADSVKGRFTVSRDNAKNSLYLLMNNLRAEDTAVYYCARDLGIFDLWGQGTLVTVSS
VL: EIVMTQSPATLSVSPGERATLSCRASQSVSSSLAWYHQKPGQAPRLLIHGVSTRATGIPARFSGTGSGTEFTLTISSLQSEDFAVYYCQQYHNWPPYTFGQGTKLEIKR
[5]
  Kd: 0.0101 nM
  T½: 47.6 h
  koff: 4.05e-06 s⁻¹
  kon: 402000 M⁻¹ s⁻¹
